Test results from publication PMC8336959 (Science Advances, 2021).
Square brackets hold non-standard residues; d marks the D form. Ends that are not written are not given here. pY = N[C@@H](Cc1ccc(OP(=O)(O)O)cc1)C(=O)O; pS = N[C@@H](COP(=O)(O)O)C(=O)O

B1: RPA70 N-terminal OB1 domain (RPA70N, residues 1 to 120), Atto488-labeled (domain or fragment)
chain: MVGQLSEGAIAAIMQKGDTNIKPILQVINIRPITTGNSPPRYRLLMSDGLNTLSSFMLATQLNPLVEEEQLSSNCVCQIHRFIVNTLKDGRRVVILMELEVLKSAEAVGVKIGNPVPYNE
modifications: Atto488 label

Tests used:
Assay in all cases: MST
[1] = target: GRB2, wild type, bacterially expressed and purified (UniProt P62993 1-217)
[2] = target: B1
[3] = target: Atto488-labeled GRB2-SH2 domain (UniProt P62993 60-152, Atto488 label)
Chain of Atto488-labeled GRB2-SH2 domain (P62993 60-152): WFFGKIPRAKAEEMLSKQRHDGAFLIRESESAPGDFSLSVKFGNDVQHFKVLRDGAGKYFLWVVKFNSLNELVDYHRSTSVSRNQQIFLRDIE

Chain of GRB2, wild type, bacterially expressed and purified (P62993 whole entry): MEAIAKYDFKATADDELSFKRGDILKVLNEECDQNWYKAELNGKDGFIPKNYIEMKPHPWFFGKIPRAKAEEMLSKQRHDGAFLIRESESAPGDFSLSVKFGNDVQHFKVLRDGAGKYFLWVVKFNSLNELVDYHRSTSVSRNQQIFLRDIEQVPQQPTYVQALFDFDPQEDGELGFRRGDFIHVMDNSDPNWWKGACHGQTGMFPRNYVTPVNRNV

Row | Binder | binding result [1] | Kd [3] [µM] | further results
1 | PWVN[pY]QDGNLN [Tyrosine-phosphorylated MRE11 peptide] | binds |  | 
2 | B1 | binds |  | 
3 | KYDFKATADDELSFKRG [GRB2 OB1 peptide] |  |  | binding result [2]: binds
4 | PWVNYQDGNLN [MRE11 peptide] |  | 33 ± 15 | 
5 | PSGGKKATQA[pS]QE[pY] [Dual-phosphorylated H2AX (pH2AX) peptide] | binds |  | 
6 | FLPVPE[pY]INQSVPKR [Phosphorylated EGFR synthetic peptide] |  | 7.2 ± 2 | 
